Paper PMC3135353 (The Journal of Experimental Medicine, 2011)

T1: B7-H6, extracellular portion (residues Asp25-Ser262) (human, UniProt Q68D85 25-262, N-linked glycans seen at Asn43, Asn57 and Asn208)
T1 sequence (looked up): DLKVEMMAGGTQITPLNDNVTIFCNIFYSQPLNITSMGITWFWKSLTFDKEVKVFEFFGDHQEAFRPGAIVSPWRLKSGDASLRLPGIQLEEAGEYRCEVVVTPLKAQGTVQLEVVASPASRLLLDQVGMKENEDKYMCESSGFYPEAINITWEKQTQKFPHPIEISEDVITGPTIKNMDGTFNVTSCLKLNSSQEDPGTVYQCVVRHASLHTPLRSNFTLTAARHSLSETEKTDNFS

B1: NKp30 F85A/L86A mutant, extracellular portion (domain or fragment, human, UniProt O14931 19-135, looked up)
chain: LWVSQPPEIRTLEGSSAFLPCSFNASQGRLAIGSVTWFRDEVVPGKEVRNGTPEFRGRLAPLASSRAAHDHQAELHIRDVRGHDASIYVCRVEVLGLGVGTGNGTRLVVEKEHPQLG
B2: NKp30 S52R mutant, extracellular portion (domain or fragment, human, UniProt O14931 19-135, looked up)
chain: LWVSQPPEIRTLEGSSAFLPCSFNASQGRLAIGRVTWFRDEVVPGKEVRNGTPEFRGRLAPLASSRFLHDHQAELHIRDVRGHDASIYVCRVEVLGLGVGTGNGTRLVVEKEHPQLG
B3: NKp30 I50A/S52A mutant, extracellular portion (domain or fragment, human, UniProt O14931 19-135, looked up)
chain: LWVSQPPEIRTLEGSSAFLPCSFNASQGRLAAGAVTWFRDEVVPGKEVRNGTPEFRGRLAPLASSRFLHDHQAELHIRDVRGHDASIYVCRVEVLGLGVGTGNGTRLVVEKEHPQLG

target: T1, B7-H6, extracellular portion (residues …); assay: SPR

Point of comparison: B1, Kd 53 µM. Against it:
- B2 — 2.8-fold higher, 150 µM
- B3 — 3.8-fold lower, 14 µM
